The source of these data is article PMC8844826.

Test [1] concerns the target full length PSD-95 (FL-PSD-95, 1-724) (human) (UniProt P78352). Kind of test: fluorescence polarisation; competition at pH 9.4: PSD-95 (150 nM) and fluorescent tracer, increasing NA-1; apparent.
Test [2] has the same target. The test can be described thus: fluorescence polarisation; competition at pH 8.4: PSD-95 (150 nM) and fluorescent tracer, increasing NA-1; apparent.
For test [3] the target is unchanged. Kind of test: fluorescence polarisation; competition at pH 6.4: PSD-95 (150 nM) and fluorescent tracer, increasing NA-1; apparent.
The target is the same in test [4]. The test can be described thus: fluorescence polarisation; competition at pH 7.4: PSD-95 (150 nM) and fluorescent tracer, increasing NA-1; apparent.

Chain of full length PSD-95 (FL-PSD-95, 1-724) (human) (P78352 whole entry): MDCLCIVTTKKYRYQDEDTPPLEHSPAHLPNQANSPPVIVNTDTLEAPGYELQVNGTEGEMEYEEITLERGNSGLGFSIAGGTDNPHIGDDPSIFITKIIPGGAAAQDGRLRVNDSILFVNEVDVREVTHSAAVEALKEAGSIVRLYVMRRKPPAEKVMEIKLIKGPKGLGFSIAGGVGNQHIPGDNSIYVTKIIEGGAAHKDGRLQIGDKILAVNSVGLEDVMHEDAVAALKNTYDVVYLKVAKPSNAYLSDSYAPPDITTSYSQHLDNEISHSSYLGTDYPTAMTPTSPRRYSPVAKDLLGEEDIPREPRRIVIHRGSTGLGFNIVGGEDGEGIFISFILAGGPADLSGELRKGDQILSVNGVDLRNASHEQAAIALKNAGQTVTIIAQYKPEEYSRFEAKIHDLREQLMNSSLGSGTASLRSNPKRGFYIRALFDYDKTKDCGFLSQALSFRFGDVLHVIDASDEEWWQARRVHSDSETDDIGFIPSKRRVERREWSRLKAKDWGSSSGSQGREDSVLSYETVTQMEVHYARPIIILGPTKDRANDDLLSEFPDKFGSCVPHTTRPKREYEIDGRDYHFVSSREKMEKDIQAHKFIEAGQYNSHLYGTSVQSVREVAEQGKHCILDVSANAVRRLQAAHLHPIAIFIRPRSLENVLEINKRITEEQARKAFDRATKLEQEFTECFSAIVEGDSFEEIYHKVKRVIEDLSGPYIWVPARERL

For the substance “NA-1 (nerinetide): TAT peptide fused to C-terminal residues of the GluN2B NMDAR subunit”, the Ki in test [1] is 4.1 µM; in test [2], 2.6 µM; in test [3], 7.2 µM; in test [4] it was 4.5 µM.
